Test results reported in patent publication US20240002503A1.

Biological target: LILRB2 (human) (UniProt Q8N423)
Assay: flow cytometry HLA-G blocking; hIgG4 isotype control

Chain of UniProt Q8N423 (Q8N423 22-597): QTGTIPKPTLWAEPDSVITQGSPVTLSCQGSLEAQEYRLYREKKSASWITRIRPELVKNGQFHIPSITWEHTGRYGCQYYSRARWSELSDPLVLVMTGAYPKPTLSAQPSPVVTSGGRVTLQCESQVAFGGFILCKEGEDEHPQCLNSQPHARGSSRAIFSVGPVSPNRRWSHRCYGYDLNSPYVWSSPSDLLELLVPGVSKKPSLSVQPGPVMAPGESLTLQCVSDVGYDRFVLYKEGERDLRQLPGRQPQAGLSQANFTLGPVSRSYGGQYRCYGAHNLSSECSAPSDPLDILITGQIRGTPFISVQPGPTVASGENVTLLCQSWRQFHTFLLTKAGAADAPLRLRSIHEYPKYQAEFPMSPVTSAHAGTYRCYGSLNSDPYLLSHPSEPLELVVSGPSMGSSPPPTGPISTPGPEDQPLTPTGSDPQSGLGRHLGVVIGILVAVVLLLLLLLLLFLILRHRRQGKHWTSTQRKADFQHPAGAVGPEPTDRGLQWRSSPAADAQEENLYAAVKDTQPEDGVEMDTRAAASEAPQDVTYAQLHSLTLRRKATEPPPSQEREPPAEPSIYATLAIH

IC50: > 66.7 nM
Substance: Isotype
